Experimental data published in the supplement of paper PMC9170038.

Test system: MS2 coat protein
Test: apparent KD of MS2 coat protein; higher = weaker reporter binding
Conditions: Eterna round: R107
Procedure: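 RNA-MaP round R107: designed RNA switches with theophylline, tryptophan, arginine or FMN aptamers are transcribed on-chip within common flanks. They are titrated with SNAP-549-labelled MS2 coat protein in RNA-MaP buffer (100 mM Tris pH 7.5, 80 mM KCl, 4 mM MgCl2), without ligand or with the indicated ligand. Median apparent KD per design.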

[1] = input ligand: theophylline 20 uM
[2] = input ligand: theophylline 2 mM
[3] = input ligand: tryptophan 2.4 mM

Sequence	apparent KD of MS2 coat protein (input ligand: arginine 13.2 mM) [nM]	apparent KD of MS2 coat protein (input ligand: none) [nM]	apparent KD of MS2 coat protein [1] [nM]	apparent KD of MS2 coat protein [2] [nM]	apparent KD of MS2 coat protein [3] [nM]
AAUUCCUAACAUGAGGAUCACCCAUGUGAAGGAGCGCCGAAUAAGGCAGGUAGGUCGCACAUGGAACCGCUACGAAAGUAGCAAA	22.5	23.5	23.6	21.6	17.8
CACAGUGCGAAUUUGAAUUCGCACGAUCCUCGAGGACCGGUACGGCCGCCACUCGCGCGGGUCGUACAUGAGGAUCACCCAUGUC [Quermavebe]	25	–	233	1190	–
UAUUUGGUGCGCGAGUGUUGGAUAAUUGAUACCAGUGAAGAAGAGCGCCCUUGGCAGCGAAUCCUAACAUGAGGAUCACCCAUGU [5.T]	35.9	–	55.3	–	35.4
UCGGGCAGAGCGGCCGCCACUGUAUGGCAUGCGGAUGAAGGAACAUGAGGAUCACCCAUGUAGAUUAGGACCGGGCUUGCGGAGA [p''pmullin]	29.1	19.8	22.9	17.7	20
UAUAUUGUGAUGGAUACCAGCAGAGAAAACGUUUAUCCUAACAUGAGGAUCACCCAUGUAUGCCCUUGGCAGCUGUUGUGGUAUA [8.P]	34.7	–	55.3	–	38.6
UAAAAUAAUAAUGAUACCAGCCCUCCCUCCCGGGACAUGAGGAUCACCCAUGUCUCUCCCGGCCCUUGGCAGCAUAAAUAAUAAU [Same Stare - Theophylline B]	12.1	–	15	–	12.1
GCCUAGCAUCGAAGGAGCGGGCAUUACGCGCGAAAGCGCGAUACUUGAGGAACACCCAAGUCCCAGGUAGGUCGCGAUGCUAGGC [SSAB Alternative Aptamer #3 NP+V+V2]	31.4	70.9	127	94.9	83.5
GGUGGGAGCAACGAUACCAGCUACAUGAGGAUCACCCAUGUGGAAUGGGAGUCAACAGCGAGCCCUUGGCAGCGUUAGACCCAAA [Bebeeserdi]	13.2	11.3	20.4	128	11.6
AAUACCGGUCCUCGAGGGUGAUCCUCAUGACGAGGACCGGUACGGCCGCCACUCGAUAACAUGAGGAUCACCCAUGUAAUCGAGU [|T'-M'-Trp-Ms2|_Design7b]	34.1	–	70.4	72.4	–
GGGUGUGAUCCGGAUACCAGCGAACAUGAGGAUCACCCAUGUGACCUGAGAUCGGCUCUACGCCCUUGGCAGCCGCGGUCGCAGG [Same State Theophylline B GF13]	23	–	19.5	15.4	12.4
CAAGAGUUGUACAUUGUGAGGCGUCGGGAACGAGGACCGGUACGGCCGCCACUCGAAAAUUAACAUGAGGAUCACCCAUGUACAC [theeternabot_exclusion_MS2_Trp_A_35]	36.1	–	72.7	82.8	–
UGAUAUGUAGGAAGGAGCGCAUACUUCACAUGAGGAUCACCCAUGUCAAGACGUGAGUCAGUGCAGGUAGGUCGCCUAGUUAUGA [Same State - Arginine B (Freestyle 20)]	30.2	44.9	41	36.9	36
AACAUACAAUAAUAGGUGGAUAUAAGGCGGCGAGGACCGGUACGGCCGCCACUCGCGUACAUGAGGAUCACCCAUGUCUGAAACU [Same State - Tryptophan A (Freestyle 3)]	16.8	–	26.8	27	–
AAGAACAUGAGGAUCACCCAUGUGAUCGUUCGAGGACCGGUACGGCCGCCACUCGGACCUGUGUCCAGGCACGGGCCGACGCGAC [theeternabot_sameState_MS2_Trp_A_21]	74.8	–	118	106	–
AAUGGGCGAGUAGAGCAUAAUUUCCACUCCCGAGGACCGGUACGGCCGCCACUCGUUCGCUCACAUGAGGAUCACCCAUGUGGUC [theeternabot_exclusion_MS2_Trp_A_17]	24.7	–	32.3	40.3	–
GGUCGCCAACAUGGGUCGGUGAAAUGGGAAGGAGCGAGCGAGAGCUCAGGUAGGUCGCCCAAACAUGAGGAUCACCCAUGUAAUA [SSArg-A #28 UUU adds V2]	21	125	113	74.8	53.4
AAAAUAAAAGGUGCAAAAUCCUAAUGUGAAGGAGCGCACGAAAGUGCAGGUAGGUCGCACAUGAGGAUCACCCAUGUAGCACCAA [ArgEX 4 #SwitchBubble]	54.8	146	115	211	147
AUUCAUAACUGAAGGAGCGUGAUAUAAAUUUUUACAUGAGGAUCACCCAUGUUUCAUAGAUCACAGGUAGGUCGCAGAUUCUCAU [JR_SSArginiB_Sub011]	36.8	45.2	42.4	42.9	39.2
